The data set can be described thus: dynamic light scattering; self-association of NT below pH 6.4.

B1: NT, N-terminal fragment of major ampullate spidroin (MaSp) 1 from Euprosthenops australis (protein)
chain: GSGNSHTTPWTNPGLAENFMNSFMQGLSSMPGFTASQLDDMSTIAQSMVQSIQSLAAQGRTSPNKLQALNMAFASSMAEIAASEEGGGSLSTKTSSIASAMSNAFLQTTGVVNQPFINEITQLVSMFAQAGMNDVSA
Turning to B1, the “hydrodynamic size of polymers” value was “polymers with a hydrodynamic size of ˜700 nm below pH 6.4”.

The values are drawn from patent US8642734.
